Molecular target: T1, tagless human TIM-3 IgV domain (human, UniProt Q8TDQ0 24-130)
T1 construct: N-terminal methionine added before Val24; T-cell immunoglobulin and mucin domain containing protein-3 (TIM-3, HAVCR2), human, IgV domain, Val24 thru Lys130; the same tagless protein was used for crystallization and ELISA; also called tagless hTIM-3 IgV domain; hTIM-3 IgV domain
Experiment: ELISA; tagless hTIM-3 IgV (50 μl of 250 nM) coated on the plate; GST tagged hCEACAM1 IgV (0–15 μM) or GST control in Dulbeccos PBS; detected with goat polyclonal anti-GST-HRP
Settings: both partners purified

T1 sequence (Q8TDQ0 other isoform, or with tags, fused parts or gaps): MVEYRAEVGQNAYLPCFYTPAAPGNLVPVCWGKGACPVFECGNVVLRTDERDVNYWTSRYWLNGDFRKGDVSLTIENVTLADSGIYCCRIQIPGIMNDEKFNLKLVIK

EC50: 3.13 µM
B1: glutathione-S-transferase (GST) tagged hCEACAM1 IgV-domain protein (domain or fragment, human, UniProt P13688 35-142, looked up)
chain: QLTTESMPFNVAEGKEVLLLVHNLPQQLFGYSWYKGERVDGNRQIVGYAIGTQQATPGPANSGRETIYPNASLLIQNVTQNDTGFYTLQVIKSDLVNEEATGQFHVYP
notes: carcinoembryonic antigen cell adhesion molecule 1 (CEACAM1), human, IgV (N-terminal) domain; Detected by an anti-GST-HRP antibody; also called GST-hCEACAM1 IgV fusion protein

Source: article PMC6269442, “High resolution X-ray and NMR structural study of human T-cell immunoglobulin and mucin domain containing protein-3” (Scientific Reports, 2018)
